Laboratory results as given in publication PMC7431413.

Molecular target: recombinant tyrosine phosphorylated STAT3 dimer (pY705 STAT3-CF) (human) (UniProt P40763)
Test: SEC; purified STAT3-CF co-expressed with the ABL1 kinase domain; immunoblot for pY705

stoichiometry N: 2
Substance: recombinant tyrosine phosphorylated STAT3 dimer (pY705 STAT3-CF) (from UniProt P40763 127-722) (domain or fragment)
